IntAct's records for PubMed 31515488

B1: Zinc finger protein Aiolos (Homo sapiens), Q9UKT9-1 (parent)
chain: MEDIQTNAELKSTQEQSVPAESAAVLNDYSLTKSHEMENVDSGEGPANEDEDIGDDSMKVKDEYSERDENVLKSEPMGNAEEPEIPYSYSREYNEYENIKLERHVVSFDSSRPTSGKMNCDVCGLSCISFNVLMVHKRSHTGERPFQCNQCGASFTQKGNLLRHIKLHTGEKPFKCHLCNYACQRRDALTGHLRTHSVEKPYKCEFCGRSYKQRSSLEEHKERCRTFLQSTDPGDTASAEARHIKAEMGSERALVLDRLASNVAKRKSSMPQKFIGEKRHCFDVNYNSSYMYEKESELIQTRMMDQAINNAISYLGAEALRPLVQTPPAPTSEMVPVISSMYPIALTRAEMSNGAPQELEKKSIHLPEKSVPSERGLSPNNSGHDSTDTDSNHEERQNHIYQQNHMVLSRARNGMPLLKEVPRSYELLKPPPICPRDSVKVINKEGEVMDVYRCDHCRVLFLDYVMFTIHMGCHGFRDPFECNMCGYRSHDRYEFSSHIARGEHRALLK
partner: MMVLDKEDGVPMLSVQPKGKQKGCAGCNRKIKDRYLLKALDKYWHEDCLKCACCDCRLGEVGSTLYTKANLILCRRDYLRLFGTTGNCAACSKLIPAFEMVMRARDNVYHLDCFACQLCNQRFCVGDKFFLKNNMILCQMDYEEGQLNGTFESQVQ
B2: Mothers against decapentaplegic homolog 4 (Homo sapiens), Q13485 (parent)
chain: MDNMSITNTPTSNDACLSIVHSLMCHRQGGESETFAKRAIESLVKKLKEKKDELDSLITAITTNGAHPSKCVTIQRTLDGRLQVAGRKGFPHVIYARLWRWPDLHKNELKHVKYCQYAFDLKCDSVCVNPYHYERVVSPGIDLSGLTLQSNAPSSMMVKDEYVHDFEGQPSLSTEGHSIQTIQHPPSNRASTETYSTPALLAPSESNATSTANFPNIPVASTSQPASILGGSHSEGLLQIASGPQPGQQQNGFTGQPATYHHNSTTTWTGSRTAPYTPNLPHHQNGHLQHHPPMPPHPGHYWPVHNELAFQPPISNHPAPEYWCSIAYFEMDVQVGETFKVPSSCPIVTVDGYVDPSGGDRFCLGQLSNVHRTEAIERARLHIGKGVQLECKGEGDVWVRCLSDHAVFVQSYYLDREAGRAPGDAVHKIYPSAYIKVFDLRQCHRQMQQQAATAQAAAAAQAAAVAGNIPGPGSVGGIAPAISLSAAAGIGVDDLRRLCILRMSFVKGWGPDYPRQSIKETPCWIEIHLHRALQLLDEVLHTMPIADPQPLD
partner: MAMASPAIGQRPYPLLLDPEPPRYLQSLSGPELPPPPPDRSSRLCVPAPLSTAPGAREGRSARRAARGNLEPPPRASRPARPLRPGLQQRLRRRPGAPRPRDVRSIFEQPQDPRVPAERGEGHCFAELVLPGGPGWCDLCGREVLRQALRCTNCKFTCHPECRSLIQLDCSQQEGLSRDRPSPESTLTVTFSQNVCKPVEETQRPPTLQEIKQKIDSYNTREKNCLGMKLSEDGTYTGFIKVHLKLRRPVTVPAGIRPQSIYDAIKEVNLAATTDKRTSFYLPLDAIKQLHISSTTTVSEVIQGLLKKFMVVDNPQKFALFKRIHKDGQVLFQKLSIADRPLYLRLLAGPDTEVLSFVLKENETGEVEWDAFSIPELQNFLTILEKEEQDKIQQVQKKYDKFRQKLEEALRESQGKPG
B3: Four and a half LIM domains protein 2 (Homo sapiens), Q14192 (parent)
chain: MTERFDCHHCNESLFGKKYILREESPYCVVCFETLFANTCEECGKPIGCDCKDLSYKDRHWHEACFHCSQCRNSLVDKPFAAKEDQLLCTDCYSNEYSSKCQECKKTIMPGTRKMEYKGSSWHETCFICHRCQQPIGTKSFIPKDNQNFCVPCYEKQHAMQCVQCKKPITTGGVTYREQPWHKECFVCTACRKQLSGQRFTARDDFAYCLNCFCDLYAKKCAGCTNPISGLGGTKYISFEERQWHNDCFNCKKCSLSLVGRGFLTERDDILCPDCGKDI
partner: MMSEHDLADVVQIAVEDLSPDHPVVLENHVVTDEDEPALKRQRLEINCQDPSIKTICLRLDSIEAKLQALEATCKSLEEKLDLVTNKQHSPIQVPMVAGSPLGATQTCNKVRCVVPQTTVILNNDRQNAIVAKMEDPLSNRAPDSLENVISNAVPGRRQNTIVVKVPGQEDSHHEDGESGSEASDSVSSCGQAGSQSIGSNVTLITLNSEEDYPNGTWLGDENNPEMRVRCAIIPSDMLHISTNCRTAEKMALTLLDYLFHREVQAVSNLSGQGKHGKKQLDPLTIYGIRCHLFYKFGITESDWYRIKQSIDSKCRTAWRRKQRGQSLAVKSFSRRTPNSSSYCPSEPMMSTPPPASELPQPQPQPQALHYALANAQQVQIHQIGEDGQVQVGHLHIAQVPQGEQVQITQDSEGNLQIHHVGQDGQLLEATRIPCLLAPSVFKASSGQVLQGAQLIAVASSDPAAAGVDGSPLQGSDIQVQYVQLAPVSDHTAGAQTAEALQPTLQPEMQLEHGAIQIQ

Variants of: B1
Settings: with rbtn1_human LMO1, P25800

| Variant | effect of a mutation on the interaction |
| --- | --- |
| I338M | with no effect |

Variants of: B1
Settings: with rbtn1_human LMO1, P25800
Remark: another data set of the same source

| Variant | effect of a mutation on the interaction |
| --- | --- |
| A24V | with no effect |
| N119D | with no effect |

Variants of: B2
Settings: with rasf5_human RASSF5, Q8WWW0

| Variant | effect of a mutation on the interaction |
| --- | --- |
| L533R | with no effect |
| G352R | with no effect |
| C324R | disrupting interaction strength |
| R361C | with no effect |
| Y353S | with no effect |
| E330K | with no effect |
| N13S | with no effect |
| V350D | disrupting interaction strength |

Variants of: B3
Settings: with banp_human BANP

| Variant | effect of a mutation on the interaction |
| --- | --- |
| R177Q | with no effect |
